Changes are numbered by the printed parent chain.
Legend:
[1] = target: soluble human IL-6Rc (shuIL-6Rc) recombinant fusion protein of IL-6R and IL-6 (human) (UniProt P08887); test: SPR (Biacore 2000), mAb captured on anti-human IgG Fc, analyte in solution, 25 C, 1:1 Langmuir
FULLY MOUSE IL-6R = target: T1, FULLY MOUSE IL-6R (mouse, UniProt P22272); test: flow cytometry on PEAK cells displaying the IL-6R variant, goat anti-human IgG Alexa Fluor 647
T1 construct: also called chimeric receptor #5
T1 sequence (receptor chain, looked up): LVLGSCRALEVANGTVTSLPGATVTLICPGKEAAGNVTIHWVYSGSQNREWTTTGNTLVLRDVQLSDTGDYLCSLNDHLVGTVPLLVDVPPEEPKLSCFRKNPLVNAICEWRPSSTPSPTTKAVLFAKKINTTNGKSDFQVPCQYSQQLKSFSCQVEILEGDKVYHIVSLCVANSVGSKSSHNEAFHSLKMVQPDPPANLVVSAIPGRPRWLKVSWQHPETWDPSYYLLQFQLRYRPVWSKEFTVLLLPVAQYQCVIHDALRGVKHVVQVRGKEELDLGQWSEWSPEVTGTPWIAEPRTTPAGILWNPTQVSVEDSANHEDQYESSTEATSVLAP
Description: (§1) An overlap extension PCR strategy was used to generate coding sequences specifying huIL-6R/mouseIL-6R chimeric proteins (FIG. 6A) and mouse IL-6R proteins containing human amino acid substitutions in D3 domains (FIG. 6B). Partially overlapping mutagenic oligonucleotide primers were used for PCR amplification of N- and C-terminal sequences on either side of huIL-6R/mouse IL-6R junctions or substituted regions, followed by gel isolation and annealing of the denatured PCR products. Full length PCR products were then digested by EcoRI and BglII and ligated into a pDISPLAY™ vector (Invitrogen). PEAK cells were grown in DMEM medium supplemented with 10% fetal calf serum and 4 mM L-glutamine. Cells were plated 12 to 24 h before transfection to have 40-50% confluency in 6 well plates. Transfections of pDISPLAY™ vectors (Invitrogen) were carried out by lipofection using TransIT® LT1 reagent (MirusBio) according manufacturer's specifications. Cells were grown for 48 h before harvesting and analysis by flow cytometry.
(§2) Cell surface staining was performed on PEAK cells displaying each variant of IL-6R and analyzed by flow cytometry (FIG. 6B-D). Cell surface expression of each chimeric IL-6R was assessed using an anti-human-CD126 PE or an anti-mouse CD126-PE antibody (BD Pharmingen).

MUTANT 5 = target: T2, MUTANT 5 (mouse, UniProt P22272); test: flow cytometry on PEAK cells displaying the mutated mouse IL-6R, goat anti-human IgG Alexa Fluor 647
T2 construct: also called mouse IL-6R with human residues in D3, mutant 5
T2 sequence (receptor chain, looked up): T1 sequence (receptor chain, looked up) with L276F, D277G, L278Q, Q280E
Description: as §1, §2

MUTANT 1 = target: T3, MUTANT 1 (mouse, UniProt P22272); test: as above
T3 construct: also called mouse IL-6R with human residues in D3, mutant 1
T3 sequence (receptor chain, looked up): T1 sequence (receptor chain, looked up) with L200I, V201T, S203T, I205V, P206A, G207R, R208N
Description: as §1, §2

MUTANT 2 = target: T4, MUTANT 2 (mouse, UniProt P22272); test: as above
T4 construct: also called mouse IL-6R with human residues in D3, mutant 2
T4 sequence (receptor chain, looked up): T1 sequence (receptor chain, looked up) with P237A, V238E, W239R, E242T
Description: as §1, §2

MUTANT 3 = target: T5, MUTANT 3 (mouse, UniProt P22272); test: as above
T5 construct: also called mouse IL-6R with human residues in D3, mutant 3
T5 sequence (receptor chain, looked up): T1 sequence (receptor chain, looked up) with V245T, L246W, L247M, L248V, P249K, V250D, A251L
Description: as §1, §2

B1: NI-1201 wild type (NI-1201-WT) antibody (antibody, V domains shown)
VH: QVQLVQSGAEVKKPGSSVKVSCKASGGTFSSYAISWVRQAPGQGLEWMGGIIPLFDTTKYAQQFQGRVTITADESTSTAYMELSSLRSEDTAVFYCARDRDILTDYYPMGGMDVWGQGTTVTVSS
VL: AIQLTQSPSSLSASVGDRVTITCRASQGISSVLAWYQQKPGKAPKLLIYDASSLESGVPSRFSGSGSGTDFTLTISSLQPEDFATYYCQQSNSYPLTFGGGTKVEIKR
notes: Fully human monoclonal IgG (captured by anti-human IgG Fc in Biacore); also called 39B9 VL1
Binder B1 has a Kd [1] of 5.64 nM, a koff [1] of 0.000243 s⁻¹ and a kon [1] of 43100 M⁻¹ s⁻¹. B1: no binding (FULLY MOUSE IL-6R); no binding (MUTANT 5); no binding (MUTANT 1). B1: binds (MUTANT 2); no binding (MUTANT 3).
